What is called EC50 is the concentration needed to bring the measured effect to its halfway point. A high value points to a less potent agent.

Data on 14 molecules can be found in US20250179196A1 (Janssen / Centocor, published 2025).

Residue numbers refer to the chain shown, from its start.

Test [1] has as its target T1, human IL-23R expressed on the cell surface of stably transfected iLite and HEK cell lines (human, UniProt Q5VWK5 24-629).
T1 construct: whole, on cells; Same receptor on two transfected cell lines; the cell line is named under assay; also called human IL-23R iLite cells; human IL-23R HEK cells
T1 sequence (looked up): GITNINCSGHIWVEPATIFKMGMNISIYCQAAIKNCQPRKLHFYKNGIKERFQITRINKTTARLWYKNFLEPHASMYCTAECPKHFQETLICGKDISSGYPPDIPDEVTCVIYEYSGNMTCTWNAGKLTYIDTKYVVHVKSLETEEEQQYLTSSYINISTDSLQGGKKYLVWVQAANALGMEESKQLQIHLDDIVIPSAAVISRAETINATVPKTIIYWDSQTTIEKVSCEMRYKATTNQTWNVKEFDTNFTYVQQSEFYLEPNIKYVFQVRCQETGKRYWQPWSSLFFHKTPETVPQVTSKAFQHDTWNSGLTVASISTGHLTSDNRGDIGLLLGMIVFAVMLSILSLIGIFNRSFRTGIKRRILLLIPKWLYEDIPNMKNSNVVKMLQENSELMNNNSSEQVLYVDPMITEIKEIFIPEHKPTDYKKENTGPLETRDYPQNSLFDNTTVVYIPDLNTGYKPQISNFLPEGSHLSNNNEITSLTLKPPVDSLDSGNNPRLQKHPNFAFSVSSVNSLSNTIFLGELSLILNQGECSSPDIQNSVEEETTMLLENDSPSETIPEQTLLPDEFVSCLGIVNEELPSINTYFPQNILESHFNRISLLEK
The test can be described thus: flow cytometry on human IL-23R HEK cells, Expt D (8-point, 96well). Here is the method:
HEK-IL-23R cell concentration response mAb binding (8-point, 96-well assay). […] HEK-IL-23R and HEK-parental cells (12.5 μL of each, 120000 cells total) were plated in 2× replicate on 96-well V-bottom plates (Corning, Cat #3357) into 37° C. warmed Assay medium containing serially diluted IL-23R mAbs to a final volume of 150 μL. IL-23R mAbs were allowed to bind to cells for 30 minutes, at 37° C. […] Cells were next washed twice in ice-cold stain buffer, then resuspended in a final volume of 30 μL with Sytox Green viability dye (ThermoFisher, Cat #S7020). Plates were kept on ice until run for analysis on the iQue. All washes were performed by centrifugation (800 rcf, 3 minutes) followed by flick decantation to remove supernatants. Cell-binding to HEK-IL-23R cells was measured with FlowJo, by gating for single, viable cells and determining the geometric mean fluorescence intensity (MFI) for the 647 detection antibody. Geometric mean fluorescence intensities were plotted over log mAb concentrations fitted with a dose response curve with variable slope using GraphPad Prism.
On the technique in general: A flow cytometer gives signals particle by particle.

Test [2] addresses T1, human IL-23R expressed on the cell …. As to the kind of experiment: flow cytometry on human IL-23R HEK cells, Expt E (11-point, 384well). Here is the method: HEK-IL-23R cell concentration response mAb binding (11-point, 384-well assay). […] IL-23R mAbs were allowed to bind to cells for 30 minutes, at 37° C. […] Cells were next washed twice in ice-cold stain buffer, then resuspended in a final volume of 10 μL with Sytox Green viability dye (ThermoFisher, Cat #S7020). Plates were kept on ice until run for analysis on the iQue. All washes were performed by centrifugation (800 rcf, 3 minutes) followed by automated aspiration to remove supernatants with plate washers. Cell-binding to HEK-IL-23R cells was measured with FlowJo, by gating for single, viable cells and determining the geometric mean fluorescence intensity (MFI) for the 647 detection antibody. Geometric mean fluorescence intensities were plotted over log mAb concentrations fitted with a dose response curve with variable slope using GraphPad Prism.

B1: I23RB259 (antibody, mouse IgG2a, kappa, V domains shown)
VH: QVQLVQSGAEVKKPGSSVKVSCKASGGTFSSYGISWVRQAPGQGLEWMGWISPIFGTTNYAQKFQGRVTITADESTSTAYMELSSLRSEDTAVYYCARMMMQSLDYWGQGTLVTVSS
VL: not shown
notes: phage display; human V, mouse IgG2a/kappa
Regarding B1, in test [1], a half-maximal response (EC50) required 29.7 nM. Moreover, in test [2], the 50% effective concentration (EC50) was more than 50 nM and the “MFI (6.4 nM)” value was found to be 30900 MFI.

B2: I23RB32 (antibody, mouse IgG2a, kappa, V domains shown)
VH: EFQLQQSGPELVKPGASVKLSCKASGYTFTDYALHWVKQSPGQGLEWIGWIYPGGGNTYYNDKFKGKATMTADKSSSTAYMQLSSLTSEDSAVYFCARGRLRRDYPMDYWGQGTSVTVSS
VL: DIVMTQSPSSLTVTAGEKVTMSCKSSQSLLNSGNQKNYLTWYQQKPGQPPKLLIYWASTRESGVPDRFTGSGSGTDFTLTISSVQAEDLAVYYCQNDYTYPLTFGSGTKLEIKR
notes: immunization; mouse IgG2a/kappa
On to B2, for which the EC50 in test [1] stood at 0.4 nM; in test [2] it was 5.1 nM. For the same molecule, the “MFI (6.4 nM)” value in test [2] was found to be 292000 MFI.

B3: I23RB76 (antibody, mouse IgG2a, kappa, V domains shown)
VH: EVQLQQSGPELVKPGASVKMSCKASGYTFTDYYMNWMKQSHGKSLEWIGYISPKNGRTGYNQKFKGKATLTVDKSSTTAYMELRSLTSEDSAVYYCAKSNGYYALDYWGQGTTVTVSS
VL: DIVLTQSPATLCVTPGETVSLSCRASQNIYKNLHWFQQKSHRSPRLLIKYASDSISGIPSRFTGSGSGTDYTLSINSVKPEDEGIYYCLQGYSTPWTFGGGTKLEIKR
notes: as for B2
The molecule B3 showed an EC50 in test [1] of 0.4 nM. Besides, in test [2], the EC50 amounted to 11.9 nM and the “MFI (6.4 nM)” value was determined as 322000 MFI.

B4: I23RB94 (antibody, mouse IgG2a, kappa, V domains shown)
VH: DVQLQESGPELKKPGETVKISCKASGYTFTNYGMNWVRQAPGKSLKWMGWINTNTGEPAYAEEFKGRFAFSLETSASTAYLQINNLKNEDMATYFCARVRQTARATRGYFDVWGTGTTVTVSS
VL: DIVMTQSHKFMSTSVGDRVSITCKASQDVNTAVAWYQQKPGQSPKLLIYSAFYRYPGVPDRFTGSGSGTDFTFTINSVQAEDLAVYCCQQHYTSPLTFGDGTRLEIKR
notes: as for B2
On to B4, for which the EC50 in test [1] came to 0.1 nM; in test [2], 2.8 nM. Moreover, the “MFI (6.4 nM)” value in test [2] amounted to 364000 MFI.

B5: I23RB92 (antibody, mouse IgG2a, kappa, V domains shown)
VH: EVQLQQSGPEVVKPGASVKISCKASGYTFTDHTMDWVKQSHGKNLEWIGYIYPKSGGTGYNQKFKNKATLTVDKSSSTAYMEFHSLTSDDSAVYYCARWGLRRDGFVYWGQGTLVTVSA
VL: DIKMTQSPASLAVSLGQRATISCRASQSVSTSKYDYIHWYQQKSGQPPRLLIKYASNLESGVPARFSGSGSGTDFTLNIHPVEEEDTATYYCQHTWEIPYTFGSGTKLELKR
notes: as for B2
Turning to B5, the EC50 in test [1] was found to be 0.2 nM. Also, in test [2], the midpoint of the response, the EC50, lay at 4 nM and the “MFI (6.4 nM)” value is 376000 MFI.

B6: I23RB65 (antibody, mouse IgG2a, kappa, V domains shown)
VH: EVQLQQSGPELVKPGASVKISCKASGYTFTDHTMDWVKQSHGKSLEWIGYIYPKSGNAAYSQKFKSEATLTVDKSSSTAYMEFHSLTSEDSAVYYCARWGLRRDGFTYWGQGTSVTVSS
VL: B5 VL with D1Q, K3V, M4L, K33S, D35N, S44P, R49K, E85D, L110I
notes: as for B2
In test [1], B6 gave a concentration for a half-maximal effect (EC50) of 0.3 nM. Further, in test [2], the EC50 stood at 4 nM and the “MFI (6.4 nM)” value was 275000 MFI.

B7: I23RB268 (antibody, mouse IgG2a, kappa, V domains shown)
VH: QVQLVQSGAEVKKPGSSVKVSCKASGGTFSSYYIHWVRQAPGQGLEWMGGIIPIFGYANYAQKFQGRVTITADESTSTAYMELSSLRSEDTAVYYCARDPGSYGSVYYRRSYYFDYWGQGTLVTVSS
VL: EIVLTQSPATLSLSPGERATLSCRASQSVSSYLAWYQQKPGQAPRLLIYDASNRATGIPARFSGSGSGTDFTLTISSLEPEDFAVYYCQQRSNWPLTFGQGTKVEIKR
notes: as for B1
Molecule B7 registered an EC50 in test [1] of 20.6 nM. In test [2], the EC50 was 38.2 nM and the “MFI (6.4 nM)” value is 51900 MFI.

B8: I23RB270 (antibody, mouse IgG2a, kappa, V domains shown)
VH: QVQLVQSGAEVKKPGSSVKVSCKASGGTFDSYAISWVRQAPGQGLEWMGGIIPISGYANYAQKFQGRVTITADESTSTAYMELSSLRSEDTAVYYCARDLSGGYLGLRTLYYYYFDYWGQGTLVTVSS
VL: B7 VL
notes: as for B1
Regarding B8, the response in test [1] was half-maximal at 0.5 nM (EC50). Besides, in test [2], the EC50 was determined as 7.2 nM and the “MFI (6.4 nM)” value was found to be 243000 MFI.

B9: I23RB180 (antibody, mouse IgG2a, kappa, V domains shown)
VH: QVTLKESGPGILQPSQTLSLTCSFSGFSLSTYGMGVGWIRQPSGKGLEWLANIWWNDSKYHNAALKSRLTISKDTSKNQVFLKIASVDTADTATYYCGRIDGYYECVDVWGTGTSVTVSS
VL: DIQMTQSPASLSASVGETVTITCRASVNIHNYLAWYQQKQGKSPQLLVYNAKTLADGVPSRFSGSGSGTQYSLKINSLQPEDFGSYYCQHFWTTPYMYTFGAGTKLELKR
notes: as for B2
Turning to B9, in test [1], the concentration for a half-maximal effect (EC50) was determined as 27.6 nM.

B10: I23RB269 (antibody, mouse IgG2a, kappa, V domains shown)
VH: QVQLVQSGAEVKKPGSSVKVSCKASGGTFSDASISWVRQAPGQGLEWMGTIIPISGNANYAQKFQGRVTITADESTSTAYMELSSLRSEDTAVYYCARDRYVWYYWDGYFDYWGQGTLVTVSS
VL: not shown
notes: as for B1
Turning to B10, the results for the EC50 in test [1] and in test [2] were 0.6 nM and 14.7 nM, respectively. In addition, the “MFI (6.4 nM)” value in test [2] came out at 96800 MFI.

B11: I23RB161 (antibody, mouse IgG2a, kappa, V domains shown)
VH: EFQLQQSGPELVKPGASVKISCKASVYAFSSSWMNWVKQRPGKGLEWIGRIYPGDGDTNYNGKFKGKATLTADKSSSTAYMQLSSLTSEDSAVYFCARRYDFGSAMDYWGQGTSVTVSS
VL: DIVMTQSPAILSASPGEKVTMTCRASSSVSYMHWYQQKPGSSPKPWIYATSDLASGAPARFSGSGSGTSYSLTISRVEAEDAATYYCQQWSSNPPTFGGGTKLEIKR
notes: as for B2
In turn, B11 had an EC50 in test [1] of 0.8 nM.

B12: I23RB177 (antibody, mouse IgG2a, kappa, V domains shown)
VH: EVQLQQSGPELLKPGASVKISCKASGYTITDYTMHWVKQSHGKSLEWIGGINPNYGGTSYNEKFKDKATLTVDKSSSTAYMELRSLTSEDSAVFYCVRGNIYFDYWGQGTTLTVSS
VL: NTQMTQSPSSMYASLGERVTITCKASQDINSYLSWFQQKPGKSPKALIYRANRLVDGVPSRFSGSGSGQDYSLTISSLEYEDMGIYYCQQYDEFPRTFGAGTKLELKR
notes: as for B2
On to B12, for which the concentration giving a half-maximal response (EC50) in test [1] is more than 50 nM.

B13: I23RB159 (antibody, mouse IgG2a, kappa, V domains shown)
VH: EVQLQQSGGGLVKPGGSLKLSCAASGFTFSDYGMAWVRQTPRKGPEWIAFISNLAYSVYYSDTVTGRFTISRENAKNTLYLEMSSLRSEDTAMYYCARHGDYRNYGFAYWGLGTTVTVSS
VL: DIVMTQTTSSLSASLGDRVTISCRASQDISNYLNWYQQKPDGTVKLLIYYTSRLHSGVPSRFSGSGSGTDYSLTISNLEQEDIATYFCQQGNTLPWTFGAGTKLELKR
notes: as for B2
Regarding B13, the EC50 in test [1] was more than 50 nM.

B14: I23RB33 (antibody, mouse IgG2a, kappa, V domains shown)
VH: EVQLQQSGAELVKPGASVKLSCTASGFNIRDIYIHWVKQRPEQGLEWIGRIDPANGHSIYAAKFQGKATITADTSLNIAYMQLSSLTSGDTAVYYCARGSDNDYGRVLAYWGLGTSVTVSS
VL: DIVLTQSPAIMSASPGEKVTMTCRASSSVRSSYLHWYQQKSGASPKLWIYSTSNLASGVPARFSGSGSGTSYSLTITSVEAEDAATYYCQQYTGNPIFTFGSGTKLELKR
notes: as for B2
As to B14, in test [1], the response was half-maximal at 0.2 nM (EC50). In test [2], the response was half-maximal at 5.6 nM (EC50) and the “MFI (6.4 nM)” value was determined as 306000 MFI.
